Assay results from patent US10138280B2, “Polypeptides targeting glycosylated MUC2 proteins, methods of synthesis, their nucleic acids and uses thereof” (INSTITUT PASTEUR, priority 2011, dated 2018).
No end group written: not given here.

Legend:
[1] = system: human neutrophil (PMN) granules; test: Human neutrophil (PMN) granule staining; type: cell-based; details: for PMN granule staining: PMN purified from human blood, fixed in 4% PFA, 1 μg/mL; for signal brightness of PMN granule staining: fixed PMN, compared among Cy5-MUB40 probes
Method: FIG. 14. Staining of individual neutrophiles (white blood cells) in human blood sample. Cy5-MUB70 was incubated on ethanol 100% fixed blood sample. […] (Details are provided on the Figure). […] In particular, granules staining is achieved.
FIG. 15. Staining of individual neutrophiles (white blood cells) purified from fresh human blood sample. Cy5-MUB70 was incubated on PFA 4% fixed neutrophiles (PFA treatment for 15 min, wash 3 times in PBS). Signal was detected as dots distributed in neutrophile cytoplasms. (Staining with Dapi 1:1000 and EB1C5 1:1000 in PBS+10% FCS+0.1% Saponin). […] In particular, granules staining is achieved.
FIG. 29. Identification of Muc2 in neutrophile granules using MUB70-Cy5. Human neutrophil (PMN) granule staining using Cy5-MUB70. PMN were purified from healthy donor blood samples and fixed in the presence of 4% PFA. Fluorescent staining of human colonic mucus was performed by the addition of 1 μg/mL of Cy5-MUB70 (Red) with Dapi (1:100) (Blue) and 1:200 anti-Muc2 antibody (Green). Image acquisition was performed using a fluorescent confocal microscope (see Methods).
FIG. 31. Identification of Muc2 in neutrophile granules. Human neutrophil (PMN) granule staining using Cy5-MUB40-1, Cy5-MUB40-2, Cy5-MUB40-3, Cy5-MUB40-4 peptides. Schematic description of the Cy5-conjugated peptides. PMN were purified from healthy donor blood samples and fixed in the presence of 4% PFA. Fluorescent staining of human colonic mucus was performed by the addition of 1 μg/mL of the Cy5-conjugated peptides (Green) with Dapi (1:100) (Blue) and Phalloidin-RRX (1:1000) (Red). Image acquisition was performed using a fluorescent confocal microscope (see Methods).
The invention has also proven to be useful for the monitoring of neutrophile degranulation events, in particular by using MUB70 and/or MUB40 polypeptides or polypeptides sharing identity with MUB70 and/or MUB40 polypeptides, or fragments thereof, for labelling neutrophile granule(s).

[2] = biological target: T1, human colonic mucus (Muc2) (Homo sapiens, UniProt Q02817); test: Immunofluorescent staining of human mucus and fixed human colon samples; details: human mucus extract collected on ex vivo tissues
T1 construct: Segments of human colon (ascending, descending and sigmoid colon) were obtained from fully informed patients undergoing surgery; from tissue; host or cells: healthy human colon segments (live explants, mucus collected from them, Carnoy- or formol-fixed sections)
Description: (§1) FIGS. 4A-4B. Cy5-MUB70 is specifically binding to the glycosylated moiety of Muc2 secreted in the colon mucus layer. (FIG. 4A) Immunodetection of Muc2, Muc5ac, Muc5b and Muc6 (dotblot analysis) on human mucus extracts eluted after a pulldown assay performed with biot-MUB70 on avidin conjugated beads (see Methods). Biotin is used as a negative control. Immunodetection of Muc2 (dotblot analysis) on deglycosylated mucus extracts eluted after a pulldown assay performed with biot-MUB70 on avidin conjugated beads. Non-deglycosylated mucus extract is used as a positive control. (FIG. 4B) Co-localization of Muc2 (green) and Cy5-MUB (blue) observed on fixed (Carnoy) human colon samples. Actin is stained in red (Phall.RRX). Observations are performed using a confocal microscope. Bars is 20 μm.
FIGS. 9A-9B. (FIG. 9A) Co-localization of Muc2 (green) and Cy5-MUB (blue) performed by immunofluorescent detection on human mucus extract collected on ex vivo tissues using an epifluorescent microscope. Bar is 50 μm. […]
For immunofluorescence assay mouse α-MUC2 pAbs (Santa Cruz sc-15334) was diluted 1:1000 and FITC-conjugated rabbit anti-mouse was diluted 1:2000. Host cells were detected with DAPI (nuclei, […]) or using Phalloidin-Rhodamine red X (RRX)-conjugated donkey anti-mouse antibodies (Jackson Immunoresearch Antibodies) as an actin marker (stained red); both were used at a final dilution of 1:1000. […]

[3] = biological target: T2, human colonic mucus and goblet cells (Homo sapiens, UniProt Q02817); test: Fluorescent staining of healthy human colon, formol fixed, paraffin embedded samples; details: fixed samples, 1 μg/mL
T2 construct: Segments of human colon (ascending, descending and sigmoid colon) were obtained from fully informed patients undergoing surgery; from tissue; host or cells: healthy human colon segments (live explants, mucus collected from them, Carnoy- or formol-fixed sections)
Method: FIG. 22. Schematic description of the Cy5-MUB40-1, Cy5-MUB40-2, Cy5-MUB40-3, Cy5-MUB40-4 peptides (SEQ ID NOS 62 to 65). Fluorescent staining of human colonic mucus was performed by the addition of 1 μg/mL of the corresponding Cy5-conjugated peptides with Phalloidin-RRX (1:100) on formol fixed, paraffin embedded samples. Image acquisition was performed using a fluorescent confocal microscope (see Methods).
FIG. 23 Comparative staining analysis of human colonic goblet cells using Cy5-MUB70 and Cy5-MUB40-1. Fluorescent staining of human colonic mucus was performed by the addition of 1 μg/mL of the corresponding Cy5-conjugated peptides with Phalloidin-RRX (1:100) on formol fixed, paraffin embedded samples. Image acquisition was performed using a fluorescent confocal microscope (see Methods).
FIGS. 24A-24B. Comparative human colonic mucus staining using MUB70-Cy5 on healthy tissues and mucinous carcinomas (Coic et al, JBC, 2012 (41)). Fluorescent staining of human colonic mucus was performed by the addition of 1 μg/mL of the corresponding Cy5-conjugated peptides with Phalloidin-RRX (1:100) on formol fixed, paraffin embedded samples. Image acquisition was performed using a fluorescent confocal microscope (see Methods).
As colonic mucinous carcinomas are characterized by abnormal overproduction of Muc2 in the colon mucosa (40), the inventors have hypothesized that Cy5-MUB70 could be used as a novel fluorescent marker for the diagnosis of this pathology. […] As shown previously on a healthy colon (FIG. 3B), the luminal mucus secreted fraction is detected by Cy5-MUB70 (FIG. 24A, top panel). […] This observation might be the consequence of a higher level of mucus compaction, resulting in a lower accessibility for MUB70 to bind Muc2. […] Cy5-MUB70 has been validated as a potent innovative diagnostic tool for colonic mucinous carcinoma detection and might be optimized with alternative markers (e.g. biotin) for practical clinical applications.

Muc6 = biological target: T3, Muc6 (Homo sapiens, UniProt Q6W4X9); test: Pulldown assay with dot blot immunodetection, Muc6; type: binding; details: soluble human colonic mucus extract from HT-29 MTX; detected in the input
T3 construct: soluble human colonic mucus extracts were initially obtained from HT-29 MTX cell secretion product; endogenous in cells; host or cells: HT-29 MTX cells (secreted mucus, soluble fraction)
T3 sequence (Q6W4X9 23-2439): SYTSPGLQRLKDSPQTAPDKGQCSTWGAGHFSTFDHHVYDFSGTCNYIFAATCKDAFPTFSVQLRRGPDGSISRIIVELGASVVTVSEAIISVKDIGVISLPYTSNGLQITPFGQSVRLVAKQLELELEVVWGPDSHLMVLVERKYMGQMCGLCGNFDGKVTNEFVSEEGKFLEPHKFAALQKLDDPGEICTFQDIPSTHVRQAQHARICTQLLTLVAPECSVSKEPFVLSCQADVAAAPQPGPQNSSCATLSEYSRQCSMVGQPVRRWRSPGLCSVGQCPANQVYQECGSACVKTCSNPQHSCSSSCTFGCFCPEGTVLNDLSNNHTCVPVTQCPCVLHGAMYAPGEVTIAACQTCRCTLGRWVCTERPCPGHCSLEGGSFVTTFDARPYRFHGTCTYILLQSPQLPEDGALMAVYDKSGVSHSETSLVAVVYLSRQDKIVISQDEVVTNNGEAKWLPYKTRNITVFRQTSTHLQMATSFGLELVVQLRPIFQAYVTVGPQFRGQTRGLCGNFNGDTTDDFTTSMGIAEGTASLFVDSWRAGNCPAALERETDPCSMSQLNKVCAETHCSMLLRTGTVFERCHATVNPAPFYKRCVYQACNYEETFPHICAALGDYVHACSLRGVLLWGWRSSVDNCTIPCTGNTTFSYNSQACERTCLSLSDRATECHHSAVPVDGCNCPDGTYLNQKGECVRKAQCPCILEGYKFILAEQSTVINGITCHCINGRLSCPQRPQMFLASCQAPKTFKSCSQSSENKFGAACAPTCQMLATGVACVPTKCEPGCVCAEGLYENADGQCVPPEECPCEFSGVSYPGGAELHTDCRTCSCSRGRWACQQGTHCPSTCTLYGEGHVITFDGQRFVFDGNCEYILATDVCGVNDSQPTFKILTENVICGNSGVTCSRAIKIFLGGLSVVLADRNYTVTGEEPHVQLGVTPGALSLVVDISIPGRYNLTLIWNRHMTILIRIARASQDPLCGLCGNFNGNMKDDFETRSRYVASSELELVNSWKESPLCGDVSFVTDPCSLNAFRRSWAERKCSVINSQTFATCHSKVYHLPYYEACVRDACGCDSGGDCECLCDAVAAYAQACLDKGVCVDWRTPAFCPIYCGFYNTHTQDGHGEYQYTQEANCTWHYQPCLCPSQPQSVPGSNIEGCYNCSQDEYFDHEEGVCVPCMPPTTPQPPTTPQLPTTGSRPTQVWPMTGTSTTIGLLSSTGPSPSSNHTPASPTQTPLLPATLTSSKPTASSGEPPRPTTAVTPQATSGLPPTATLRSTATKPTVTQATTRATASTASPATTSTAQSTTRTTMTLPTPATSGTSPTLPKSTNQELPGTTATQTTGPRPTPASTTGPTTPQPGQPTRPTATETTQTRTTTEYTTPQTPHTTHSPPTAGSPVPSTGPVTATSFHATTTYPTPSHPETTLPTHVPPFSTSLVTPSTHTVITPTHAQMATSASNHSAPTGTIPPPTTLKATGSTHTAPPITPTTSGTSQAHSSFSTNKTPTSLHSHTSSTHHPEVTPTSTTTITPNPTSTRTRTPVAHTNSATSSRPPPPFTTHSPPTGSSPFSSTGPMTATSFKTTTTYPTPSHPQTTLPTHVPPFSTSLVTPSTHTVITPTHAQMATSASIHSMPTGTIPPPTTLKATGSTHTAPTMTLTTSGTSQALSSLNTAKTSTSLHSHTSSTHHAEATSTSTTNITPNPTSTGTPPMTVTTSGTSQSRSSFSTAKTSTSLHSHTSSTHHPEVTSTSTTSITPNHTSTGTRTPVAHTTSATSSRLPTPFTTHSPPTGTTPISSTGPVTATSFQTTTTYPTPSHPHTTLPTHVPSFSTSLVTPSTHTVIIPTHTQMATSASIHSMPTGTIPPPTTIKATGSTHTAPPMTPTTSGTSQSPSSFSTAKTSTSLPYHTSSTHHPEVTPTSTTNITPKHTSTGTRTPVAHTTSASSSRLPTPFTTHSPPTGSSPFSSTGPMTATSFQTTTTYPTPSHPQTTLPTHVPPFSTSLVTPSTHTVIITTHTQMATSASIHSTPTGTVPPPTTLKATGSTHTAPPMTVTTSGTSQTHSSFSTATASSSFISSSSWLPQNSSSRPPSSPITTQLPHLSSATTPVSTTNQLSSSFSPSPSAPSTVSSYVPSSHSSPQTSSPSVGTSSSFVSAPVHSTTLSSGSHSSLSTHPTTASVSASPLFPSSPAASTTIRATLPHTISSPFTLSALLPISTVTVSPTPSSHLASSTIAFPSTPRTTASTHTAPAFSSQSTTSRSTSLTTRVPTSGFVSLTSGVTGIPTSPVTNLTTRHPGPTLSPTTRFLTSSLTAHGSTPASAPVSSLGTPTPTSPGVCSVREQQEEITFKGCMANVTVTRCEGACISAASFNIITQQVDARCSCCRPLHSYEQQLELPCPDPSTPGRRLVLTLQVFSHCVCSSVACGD
Description: as §1, with “μm. […]” for “μm.”
(§2) Soluble mucus components used in pulldown assays (input and output) were transferred to nitrocellulose membranes (Invitrogen), which were blocked in PBS/5% milk and further incubated with the primary antibodies diluted in PBS/1% milk/0.01% Tween20 (Sigma-Aldrich) overnight. […] Antibody binding was detected with chemiluminescence (ECL kit, GE Healthcare).

[4] = Analytical gel filtration for quaternary structure; type: physicochemical; details: gel filtration at 0.1 and 1 mg/ml; phosphate buffer
Method: FIGS. 7A-7D. Biochemical properties of MUB70. (FIG. 7A) MUB70 total charge was calculated using Protein Calculator program (Scripps website). (FIG. 7B) Kytes and Doolittle hydropathy profile of MUB70 was generated using ExPASy bioinformatical tools. (FIG. 7C) Validation of biot-MUB70 purity by gel filtration chromatography on Superdex 200 5/150 GL column. (FIG. 7D) Partition coefficients (Kav) of the standard proteins (ferritin, 440 kDa; aldolase, 158 kDa; ovalbumin, 43 kDa; ribonuclease A, 13.7 kDa; aprotinin, 6.5 kDa) were calculated according to Kav=(Ve−V0)/(Vt−V0) (Ve, elution volume; V0, void volume; Vt, total volume of the gel bed) and plotted against the corresponding molecular masses. The molecular mass of biot-MUB70 calculated using the calibration curve equation: log(Mr)=3.12−3.1 Kav.
[…] Standard proteins from the gel filtration calibration kit (ferritin, aldolase, ovalbumin, ribonuclease A, aprotinin; GE Healthcare, Uppsala, Sweden) were used for calibration. As control biot-MUB70 was visualized on 10% SDS-PAGE gel stained by Coomassie.
The theoretical molecular weight (MW) of a biotinylated MUB70 (biot-MUB70) is 8.8 kDa. […] This observation was confirmed with the fluorescent Cy5-MUB70 compound (data not shown). […] The elution profile was recorded at 280 nm. […]

Muc5b = biological target: T4, Muc5b (Homo sapiens, UniProt Q9HC84); test: Pulldown assay with dot blot immunodetection, Muc5b; type: binding; details: soluble human colonic mucus extract from HT-29 MTX; detected in the input
T4 construct: soluble human colonic mucus extracts were initially obtained from HT-29 MTX cell secretion product; endogenous in cells; host or cells: HT-29 MTX cells (secreted mucus, soluble fraction)
Description: as §1, with “μm. […]” for “μm.”
as §2

Muc5ac = biological target: T5, Muc5ac (Homo sapiens, UniProt P98088); test: Pulldown assay with dot blot immunodetection, Muc5ac; type: binding; details: soluble human colonic mucus extract from HT-29 MTX; detected in the input
T5 construct: soluble human colonic mucus extracts were initially obtained from HT-29 MTX cell secretion product; endogenous in cells; host or cells: HT-29 MTX cells (secreted mucus, soluble fraction)
Description: as §1, with “μm. […]” for “μm.”
as §2

Muc2 = biological target: T6, Muc2 (Homo sapiens, UniProt Q02817); test: Pulldown assay with dot blot immunodetection, Muc2; type: binding
T6 construct: human colonic mucus extracts (produced in vitro from differentiated HT-29 MTX cells, see Methods); endogenous in cells; host or cells: HT-29 MTX human colonic epithelial cells, differentiated (21 days)

Molecule: Cy5-MUB40-3: Cy5-conjugated MUB40-3 peptide with N-terminal cysteine (SEQ ID NO: 64) (C(Cy5)DQMLRQDDLDGYTDETIPYSTAEGIKKFEGDGYELFKDNF; not fully specified)
- PMN granule staining [1]: efficiently stained

Molecule: CCN1/C(=C/C=C/C=C/C2=[N+](CCCCCC(=O)O)c3ccc(S(=O)(=O)O)cc3C2(C)C)C(C)(C)c2cc(S(=O)(=O)[O-])ccc21 [Cy5, reference compound]
- human mucus binding [2]: does not have the property to bind human mucus

Molecule: Cy5-MUB40-2: Cy5-conjugated MUB40-2 peptide with N-terminal cysteine (SEQ ID NO: 63) (C(Cy5)GYTDETIPYSTAEGIKKFEGDGYELFKDNFPAGEKFDNDD; not fully specified)
- PMN granule staining [1]: efficiently stained

Molecule: Cy5-MUB40-4: Cy5-conjugated MUB40-4 peptide with N-terminal cysteine (SEQ ID NO: 65) (C(Cy5)VHVQYIDGETDQMLRQDDLDGYTDETIPYSTAEGIKKFEG; not fully specified)
- PMN granule staining [1]: efficiently stained
- signal brightness of PMN granule staining [1]: brighter signal

Molecule: Cy5-MUB40-1: Cy5-conjugated MUB40-1 peptide with N-terminal cysteine (SEQ ID NO: 62) (C(Cy5)TAEGIKKFEGDGYELFKDNFPAGEKFDNDDTNDQFYTVIF; not fully specified)
- PMN granule staining [1]: efficiently stained
- signal brightness of PMN granule staining [1]: brighter signal
- goblet cells binding ([3]; human colonic goblet cells): possessing globlet-cells binding properties
- human mucus binding ([3]; human colonic mucus): functional human mucus-binding peptide

B1: biot-MUB70: biotinylated form of MUB70 (maleimide-PEG2-biotin on N-terminal cysteine) (conjugate)
peptide: CVHVQYIDGETDQMLRQDDLDGYTDETIPYSTAEGIKKFEGDGYELFKDNFPAGEKFDNDDTNDQFYTVIF
- Muc6 in eluted fraction of pulldown (Muc6): absent from the eluted fraction
- quaternary structure [4]: exists as trimer
- Muc5b in eluted fraction of pulldown (Muc5b): absent from the eluted fraction
- Muc5ac in eluted fraction of pulldown (Muc5ac): absent from the eluted fraction
- Muc2 interaction after chemical deglycosylation of mucus extract (Muc2; chemically deglycosylated mucus extract): abolished the interaction
- Muc2 interaction after desulfatation of mucus extract (Muc2; desulfatation (glycosylsulfatase)): loss of this interaction
- Muc2 in eluted fraction of pulldown (Muc2; soluble human colonic mucus extract from HT-29 MTX, avidin beads): immunodectected in the eluted fraction
